Experimental data published in PMC11667226 (Theranostics, 2025).
Where two headings read alike, the source gives them in different places. Non-standard residues stand in square brackets, D forms with d. Residues, ends and D or L forms follow the SMILES beside them. *: point of attachment. X1 = CC1(C)C(=CC=CC=CC=CC2=[N+](CCCCCC(=O)*)c3ccc4ccccc4c3C2(C)C)N(CCCCS(=O)(=O)[O-])c2ccc3ccccc3c21; Cha = N[C@@H](CC1CCCCC1)C(=O)O

Method: ECGs were taken at baseline, 1 hr ± 15 min, and 44 hrs ± 6 h post-injection. Blood samples (including lever and kidney parameters) were sampled at baseline, 12 hrs ± 4 hrs, and 44 hrs ± 6 hrs post-injection. All laboratory analyses were performed by the Department of Biochemistry at Rigshospitalet. AE assessments were graded according to the National Cancer Institute “Common Terminology Criteria for Adverse Events (CTCAE)” version 5.0. There was no data monitoring committee in this trial.
[1] = FG001 36 mg i.v., n = 4, CTCAE v5.0

CC(C)C[C@H](NC(=O)[C@H](Cc1ccc(O)cc1)NC(=O)[C@@H](CCCNC(=N)N)NC(=O)[C@@H](CO)NC(=O)[C@H](Cc1ccccc1)NC(=O)[C@H](CC1CCCCC1)NC(=O)[C@H](CC(=O)O)NC(=O)[C@H](CCC(=O)O)NC(=O)[C@H](CCC(=O)O)NC(=O)CCCCC[N+]1=C(C=CC=CC=CC=C2N(CCCCS(=O)(=O)[O-])c3ccc4ccccc4c3C2(C)C)C(C)(C)c2c1ccc1ccccc21)C(=O)N[C@@H](Cc1c[nH]c2ccccc12)C(=O)N[C@@H](CO)C(=O)O [FG001, ICG-Glu-Glu-AE105] (X1-EED[Cha]F[dS][dR]YLWS-OH; N-terminus and C-terminus assumed)
TEAE Blood bilirubin increased: No. events (FG001 36 mg i.v., N=4): 4 | TEAE Blood bilirubin increased: No. subjects (%) (FG001 36 mg i.v., N=4): 4 (100.0%) | TEAE Blood creatinine increased: No. events (FG001 36 mg i.v., N=4): 1 | TEAE Blood creatinine increased: No. subjects (%) (FG001 36 mg i.v., N=4): 1 (25.0%) | TEAE Dysgeusia: No. events (FG001 36 mg i.v., N=4): 0 | TEAE Dysgeusia: No. subjects (%) (FG001 36 mg i.v., N=4): 0 (0.0%) | TEAE GGT increased: No. events (FG001 36 mg i.v., N=4): 1 | TEAE GGT increased: No. subjects (%) (FG001 36 mg i.v., N=4): 1 (25.0%) | TEAE Hypalbuminaemia: No. events (FG001 36 mg i.v., N=4): 1 | TEAE Hypalbuminaemia: No. subjects (%) (FG001 36 mg i.v., N=4): 1 (25.0%) | TEAE Hyperglycaemia: No. events (FG001 36 mg i.v., N=4): 1 | TEAE Hyperglycaemia: No. subjects (%) (FG001 36 mg i.v., N=4): 1 (25.0%) | TEAE Hypertension: No. events (FG001 36 mg i.v., N=4): 1 | TEAE Hypertension: No. subjects (%) (FG001 36 mg i.v., N=4): 1 (25.0%) | TEAE Hyponatraemia: No. events (FG001 36 mg i.v., N=4): 0 | TEAE Hyponatraemia: No. subjects (%) (FG001 36 mg i.v., N=4): 0 (0.0%) | TEAE Hypotension: No. events (FG001 36 mg i.v., N=4): 0 | TEAE Hypotension: No. subjects (%) (FG001 36 mg i.v., N=4): 0 (0.0%) | TEAE Hypothermia: No. events (FG001 36 mg i.v., N=4): 2 | TEAE Hypothermia: No. subjects (%) (FG001 36 mg i.v., N=4): 1 (25.0%) | TEAE Pneumonia: No. events (FG001 36 mg i.v., N=4): 0 | TEAE Pneumonia: No. subjects (%) (FG001 36 mg i.v., N=4): 0 (0.0%) | TEAE SOC General disorders and administration site conditions: No. events (FG001 36 mg i.v., N=4): 2 | TEAE SOC General disorders and administration site conditions: No. subjects (%) (FG001 36 mg i.v., N=4): 1 (25.0%) | TEAE SOC Infections and infestations: No. events (FG001 36 mg i.v., N=4): 0 | TEAE SOC Infections and infestations: No. subjects (%) (FG001 36 mg i.v., N=4): 0 (0.0%) | TEAE SOC Investigations: No. events (FG001 36 mg i.v., N=4): 9 | TEAE SOC Investigations: No. subjects (%) (FG001 36 mg i.v., N=4): 4 (100.0%) | TEAE SOC Metabolism and nutrition disorders: No. events (FG001 36 mg i.v., N=4): 2 | TEAE SOC Metabolism and nutrition disorders: No. subjects (%) (FG001 36 mg i.v., N=4): 1 (25.0%) | TEAE SOC Nervous system disorders: No. events (FG001 36 mg i.v., N=4): 0 | TEAE SOC Nervous system disorders: No. subjects (%) (FG001 36 mg i.v., N=4): 0 (0.0%) | TEAE SOC Vascular disorders: No. events (FG001 36 mg i.v., N=4): 1 | TEAE SOC Vascular disorders: No. subjects (%) (FG001 36 mg i.v., N=4): 1 (25.0%) | FG001 related TEAEs: No. events (FG001 36 mg i.v., n = 4): 0 | FG001 related TEAEs: No. patients (%) (FG001 36 mg i.v., n = 4): 0 (0%) | SAEs: No. events (FG001 36 mg i.v., n = 4): 0 | SAEs: No. patients (%) (FG001 36 mg i.v., n = 4): 0 (0%) | TEAE: No. events (FG001 36 mg i.v., n = 4): 14 | TEAE: No. patients (%) (FG001 36 mg i.v., n = 4): 4 (100%) | TEAE Mild (Grade 1): No. events [1]: 8 | TEAE Mild (Grade 1): No. patients (%) [1]: 1 (25.0%) | TEAE Moderate (Grade 2): No. events [1]: 3 | TEAE Moderate (Grade 2): No. patients (%) [1]: 2 (50.0%) | TEAE Severe (Grade 3): No. events [1]: 3 | TEAE Severe (Grade 3): No. patients (%) [1]: 1 (25.0%) | TEAE Mild (Grade 1): No. events (all doses, N = 17, CTCAE v5.0): 24 | TEAE Mild (Grade 1): No. patients (%) (all doses, N = 17, CTCAE v5.0): 7 (41.2%) | TEAE Moderate (Grade 2): No. patients (%) (all doses, N = 17, CTCAE v5.0): 8 (47.1%) | TEAE Severe (Grade 3): No. patients (%) (all doses, N = 17, CTCAE v5.0): 1 (5.9%) | FG001 related TEAEs: No. events (all doses, N=17): 0 | FG001 related TEAEs: No. patients (%) (all doses, N=17): 0 (0%) | SAEs: No. events (all doses, N=17): 0 | SAEs: No. patients (%) (all doses, N=17): 0 (0%) | TEAE ALT increased: No. events (all doses, N=17): 1 | TEAE ALT increased: No. subjects (%) (all doses, N=17): 1 (5.9%) | TEAE AST increased: No. events (all doses, N=17): 3 | TEAE AST increased: No. subjects (%) (all doses, N=17): 3 (17.6%) | TEAE Blood ALP increased: No. events (all doses, N=17): 1 | TEAE Blood ALP increased: No. subjects (%) (all doses, N=17): 1 (5.9%) | TEAE Blood bilirubin increased: No. events (all doses, N=17): 7 | TEAE Blood bilirubin increased: No. subjects (%) (all doses, N=17): 7 (41.2%) | TEAE Blood creatinine increased: No. events (all doses, N=17): 2 | TEAE Blood creatinine increased: No. subjects (%) (all doses, N=17): 2 (11.8%) | TEAE Dysgeusia: No. events (all doses, N=17): 1 | TEAE GGT increased: No. events (all doses, N=17): 1 | TEAE GGT increased: No. subjects (%) (all doses, N=17): 1 (5.9%) | TEAE Hypalbuminaemia: No. events (all doses, N=17): 10 | TEAE Hypalbuminaemia: No. subjects (%) (all doses, N=17): 10 (58.8%) | TEAE Hyperglycaemia: No. events (all doses, N=17): 2 | TEAE Hyperglycaemia: No. subjects (%) (all doses, N=17): 2 (11.8%) | TEAE Hypertension: No. events (all doses, N=17): 2 | TEAE Hypertension: No. subjects (%) (all doses, N=17): 2 (11.8%) | TEAE Hyponatraemia: No. events (all doses, N=17): 1 | TEAE Hyponatraemia: No. subjects (%) (all doses, N=17): 1 (5.9%) | TEAE Hypotension: No. events (all doses, N=17): 1 | TEAE Hypotension: No. subjects (%) (all doses, N=17): 1 (5.9%) | TEAE Hypothermia: No. events (all doses, N=17): 3 | TEAE Pneumonia: No. events (all doses, N=17): 1 | TEAE Pneumonia: No. subjects (%) (all doses, N=17): 1 (5.9%) | TEAE SOC General disorders and administration site conditions: No. events (all doses, N=17): 3 | TEAE SOC Infections and infestations: No. events (all doses, N=17): 1 | TEAE SOC Investigations: No. events (all doses, N=17): 15 | TEAE SOC Investigations: No. subjects (%) (all doses, N=17): 9 (52.9%) | TEAE SOC Metabolism and nutrition disorders: No. events (all doses, N=17): 13 | TEAE SOC Metabolism and nutrition disorders: No. subjects (%) (all doses, N=17): 10 (58.8%) | TEAE SOC Nervous system disorders: No. events (all doses, N=17): 1 | TEAE SOC Vascular disorders: No. events (all doses, N=17): 3 | TEAE SOC Vascular disorders: No. subjects (%) (all doses, N=17): 3 (17.6%) | TEAE: No. events (all doses, N=17): 36 | TEAE: No. patients (%) (all doses, N=17): 16 (94.1%) | TEAE Alanine aminotransferase increased, Grade 3: No. events (all doses, Table S1): 1 | TEAE Alkaline phosphatase increased, Grade 1: No. events (all doses, Table S1): 1 | TEAE Aspartate aminotransferase increased, Grade 1: No. events (all doses, Table S1): 2 | TEAE Aspartate aminotransferase increased, Grade 3: No. events (all doses, Table S1): 1 | TEAE Blood bilirubin increased, Grade 1: No. events (all doses, Table S1): 5 | TEAE Blood bilirubin increased, Grade 2: No. events (all doses, Table S1): 2 | TEAE Creatinine increased, Grade 1: No. events (all doses, Table S1): 2 | TEAE Dysgeusia (salty taste), Grade 1: No. events (all doses, Table S1): 1 | TEAE GGT increased, Grade 3: No. events (all doses, Table S1): 1 | TEAE Hyperglycemia, Grade 1: No. events (all doses, Table S1): 2 | TEAE Hypertension, Grade 2: No. events (all doses, Table S1): 2 | TEAE Hypoalbuminemia, Grade 1: No. events (all doses, Table S1): 6 | TEAE Hypoalbuminemia, Grade 2: No. events (all doses, Table S1): 4 | TEAE Hyponatremia, Grade 1: No. events (all doses, Table S1): 1 | TEAE Hypotension, Grade 1: No. events (all doses, Table S1): 1 | TEAE Hypothermia, Grade 1: No. events (all doses, Table S1): 3 | TEAE Pneumonia, Grade 2: No. events (all doses, Table S1): 1 | Findings related to FG001 administration at physical examinations (in vivo): No abnormal findings
